Consider one molecule from PMC9926331 (Journal of Molecular Cell Biology, 2022).

This assay addresses GST-TIP60 (human, UniProt Q92993 1-513). Put plainly: pull-down.

Chain of GST-TIP60 (Q92993 whole entry): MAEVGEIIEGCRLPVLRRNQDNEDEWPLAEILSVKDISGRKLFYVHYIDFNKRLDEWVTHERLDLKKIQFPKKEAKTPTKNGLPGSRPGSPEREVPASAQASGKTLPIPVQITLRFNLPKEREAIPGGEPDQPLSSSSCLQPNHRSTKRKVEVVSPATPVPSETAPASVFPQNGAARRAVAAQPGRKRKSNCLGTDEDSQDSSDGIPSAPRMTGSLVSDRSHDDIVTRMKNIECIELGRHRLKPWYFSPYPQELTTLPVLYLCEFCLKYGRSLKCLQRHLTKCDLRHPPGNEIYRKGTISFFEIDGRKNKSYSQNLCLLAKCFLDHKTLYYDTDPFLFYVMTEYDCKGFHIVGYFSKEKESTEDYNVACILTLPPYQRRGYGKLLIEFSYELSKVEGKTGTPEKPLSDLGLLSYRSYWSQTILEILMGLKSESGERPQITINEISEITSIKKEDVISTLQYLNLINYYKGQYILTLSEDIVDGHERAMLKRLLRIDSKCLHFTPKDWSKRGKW

B1: MBP-Nup62-CT (domain or fragment, human, UniProt P37198 329-522, looked up)
chain: TYAQLESLINKWSLELEDQERHFLQQATQVNAWDRTLIENGEKITSLHREVEKVKLDQKRLDQELDFILSQQKELEDLLSPLEELVKEQSGTIYLQHADEEREKTYKLAENIDAQLKRMAQDLKDIIEHLNTSGAPADTSDPLQQICKILNAHMDSLQWIDQNSALLQRKVEEVTKVCEGRRKEQERSFRITFD
As for B1, the binding result is given as “binds”.
